To fix the notation:
B1: Succinate--CoA ligase [ADP-forming] subunit beta, mitochondrial (Homo sapiens), Q9P2R7 (parent)
chain: MAASMFYGRLVAVATLRNHRPRTAQRAAAQVLGSSGLFNNHGLQVQQQQQRNLSLHEYMSMELLQEAGVSVPKGYVAKSPDEAYAIAKKLGSKDVVIKAQVLAGGRGKGTFESGLKGGVKIVFSPEEAKAVSSQMIGKKLFTKQTGEKGRICNQVLVCERKYPRREYYFAITMERSFQGPVLIGSSHGGVNIEDVAAESPEAIIKEPIDIEEGIKKEQALQLAQKMGFPPNIVESAAENMVKLYSLFLKYDATMIEINPMVEDSDGAVLCMDAKINFDSNSAYRQKKIFDLQDWTQEDERDKDAAKANLNYIGLDGNIGCLVNGAGLAMATMDIIKLHGGTPANFLDVGGGATVHQVTEAFKLITSDKKVLAILVNIFGGIMRCDVIAQGIVMAVKDLEIKIPVVVRLQGTRVDDAKALIADSGLKILACDDLDEAARMVVKLSEIVTLAKQAHVDVKFQLPI
partner: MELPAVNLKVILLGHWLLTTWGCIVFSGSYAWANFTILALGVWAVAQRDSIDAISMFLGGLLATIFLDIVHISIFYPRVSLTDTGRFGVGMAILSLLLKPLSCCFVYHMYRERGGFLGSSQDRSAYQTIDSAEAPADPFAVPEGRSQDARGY
B2: Catenin alpha-3 (Homo sapiens), Q9UI47-2 (parent)
chain: MSAETPITLNIDPQDLQVQTFTVEKLLEPLIIQVTTLVNCPQNPSSRKKGRSKRASVLLASVEEATWNLLDKGEKIAQEATVLKDELTASLEEVRKESEALKVSAERFTDDPCFLPKREAVVQAARALLAAVTRLLILADMIDVMCLLQHVSAFQRTFESLKNVANKSDLQKTYQKLGKELENLDYLAFKRQQDLKSPNQRDEIAGARASLKENSPLLHSICSACLEHSDVASLKASKDTVCEEIQNALNVISNASQGIQNMTTPPEPQAATLGSALDELENLIVLNPLTVTEEEIRPSLEKRLEAIISGAALLADSSCTRDLHRERIIAECNAIRQALQDLLSEYMNNAGKKERSNTLNIALDNMCKKTRDLRRQLRKAIIDHVSDSFLDTTVPLLVLIEAAKNGREKEIKEYAAIFHEHTSRLVEVANLACSMSTNEDGIKIVKIAANHLETLCPQIINAALALAARPKSQAVKNTMEMYKRTWENHIHVLTEAVDDITSIDDFLAVSGMFLFF
partner: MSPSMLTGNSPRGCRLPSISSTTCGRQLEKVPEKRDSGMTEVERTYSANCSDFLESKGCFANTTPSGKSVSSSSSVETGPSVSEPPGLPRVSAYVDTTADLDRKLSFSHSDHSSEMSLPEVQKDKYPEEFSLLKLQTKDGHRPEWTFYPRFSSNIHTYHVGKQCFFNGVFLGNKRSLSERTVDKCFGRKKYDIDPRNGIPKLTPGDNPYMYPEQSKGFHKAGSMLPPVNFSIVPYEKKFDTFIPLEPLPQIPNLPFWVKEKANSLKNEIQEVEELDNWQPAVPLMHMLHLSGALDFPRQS
B3: Catenin alpha-3 (Homo sapiens), Q9UI47-2 (parent)
chain: B2 chain
partner: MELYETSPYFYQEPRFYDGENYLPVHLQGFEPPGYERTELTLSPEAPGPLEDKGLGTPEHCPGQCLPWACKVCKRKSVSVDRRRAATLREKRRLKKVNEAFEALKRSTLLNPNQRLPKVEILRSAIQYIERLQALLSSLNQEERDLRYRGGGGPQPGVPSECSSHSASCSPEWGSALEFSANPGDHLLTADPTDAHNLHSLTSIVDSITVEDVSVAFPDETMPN
B4: Catenin alpha-3 (Homo sapiens), Q9UI47-2 (parent)
chain: B2 chain
partner: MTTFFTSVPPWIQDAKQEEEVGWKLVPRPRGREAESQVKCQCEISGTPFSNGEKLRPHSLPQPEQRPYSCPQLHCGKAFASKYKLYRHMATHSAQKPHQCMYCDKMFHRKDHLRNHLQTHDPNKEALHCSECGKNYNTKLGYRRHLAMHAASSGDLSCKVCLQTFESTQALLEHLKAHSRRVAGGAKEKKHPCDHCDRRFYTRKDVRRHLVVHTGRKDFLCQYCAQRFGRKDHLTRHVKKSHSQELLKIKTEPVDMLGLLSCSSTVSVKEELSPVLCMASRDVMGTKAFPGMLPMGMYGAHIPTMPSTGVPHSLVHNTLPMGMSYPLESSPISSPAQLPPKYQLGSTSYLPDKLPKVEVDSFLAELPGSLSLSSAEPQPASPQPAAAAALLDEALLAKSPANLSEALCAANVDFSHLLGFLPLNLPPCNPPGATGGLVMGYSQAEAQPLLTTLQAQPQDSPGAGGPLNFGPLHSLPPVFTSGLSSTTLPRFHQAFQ
B5: Catenin alpha-3 (Homo sapiens), Q9UI47-2 (parent)
chain: B2 chain
partner: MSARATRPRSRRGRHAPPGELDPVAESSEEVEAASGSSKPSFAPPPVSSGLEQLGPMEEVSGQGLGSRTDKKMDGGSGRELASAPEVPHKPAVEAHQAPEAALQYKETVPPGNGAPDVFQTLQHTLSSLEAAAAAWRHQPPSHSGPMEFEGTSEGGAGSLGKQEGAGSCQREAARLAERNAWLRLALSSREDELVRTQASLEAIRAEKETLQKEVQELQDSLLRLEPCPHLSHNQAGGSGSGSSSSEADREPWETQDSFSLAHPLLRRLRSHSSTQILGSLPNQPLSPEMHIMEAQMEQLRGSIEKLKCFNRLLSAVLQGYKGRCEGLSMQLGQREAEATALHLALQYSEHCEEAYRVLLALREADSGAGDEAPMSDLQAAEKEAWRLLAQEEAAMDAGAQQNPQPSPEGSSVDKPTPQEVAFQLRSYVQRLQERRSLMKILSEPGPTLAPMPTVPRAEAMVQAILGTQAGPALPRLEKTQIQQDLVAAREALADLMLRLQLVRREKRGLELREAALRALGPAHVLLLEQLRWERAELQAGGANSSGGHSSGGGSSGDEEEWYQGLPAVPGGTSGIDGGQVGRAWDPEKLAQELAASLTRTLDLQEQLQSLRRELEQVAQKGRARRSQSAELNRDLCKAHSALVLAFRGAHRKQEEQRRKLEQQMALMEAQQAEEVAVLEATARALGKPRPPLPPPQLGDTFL
B6: Catenin alpha-3 (Homo sapiens), Q9UI47-2 (parent)
chain: B2 chain
B7: Catenin alpha-3 (Homo sapiens), Q9UI47-2 (parent)
chain: B2 chain
partner: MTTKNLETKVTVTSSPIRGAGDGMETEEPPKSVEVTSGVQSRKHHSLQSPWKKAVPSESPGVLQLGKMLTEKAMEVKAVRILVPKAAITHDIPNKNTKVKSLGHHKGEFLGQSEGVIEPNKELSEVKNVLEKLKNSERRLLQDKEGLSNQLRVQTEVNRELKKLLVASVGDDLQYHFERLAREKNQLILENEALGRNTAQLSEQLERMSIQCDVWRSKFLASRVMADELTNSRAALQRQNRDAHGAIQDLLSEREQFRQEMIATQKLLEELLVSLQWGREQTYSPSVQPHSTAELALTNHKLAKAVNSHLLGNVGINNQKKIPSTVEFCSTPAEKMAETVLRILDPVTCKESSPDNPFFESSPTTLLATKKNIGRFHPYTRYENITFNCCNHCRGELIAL
B8: Golgi SNAP receptor complex member 2 (Homo sapiens), O14653 (parent)
chain: MDPLFQQTHKQVHEIQSCMGRLETADKQSVHIVENEIQASIDQIFSRLERLEILSSKEPPNKRQNARLRVDQLKYDVQHLQTALRNFQHRRHAREQQERQREELLSRTFTTNDSDTTIPMDESLQFNSSLQKVHNGMDDLILDGHNILDGLRTQRLTLKGTQKKILDIANMLGLSNTVMRLIEKRAFQDKYFMIGGMLLTCVVMFLVVQYLT

We go through 9 variants from IntAct's records for PubMed 32296183.

The variants in the first assay derive from B1. The note with it: with AGTRAP.
Turning to D251N, the “effect of a mutation on the interaction” value is on record as “disrupting interaction strength”.
G118R: the “effect of a mutation on the interaction” value is recorded as “disrupting interaction strength”.

In the next assay the parent is B2. To be noted: with spas1_human SPATS1, Q496A3.
As for V94D, the “effect of a mutation on the interaction” value was “disrupting interaction strength”.

The variants in the next assay derive from B3. To be noted: with myog_human MYOG.
On to V94D, for which the “effect of a mutation on the interaction” value was “disrupting interaction strength”.

Variants of B4 are the subject of the next assay. The note with it: with plal2_human PLAGL2, Q9UPG8.
In the case of V94D, the “effect of a mutation on the interaction” value is listed as “disrupting interaction strength”.

Variants of B5 are the subject of the next assay. To be noted: with usbp1_human USHBP1, Q8N6Y0.
For V94D, the “effect of a mutation on the interaction” value was “disrupting interaction strength”.

The next assay covers variants of B6. The note with it: with katl1_human KATNAL1, Q9BW62.
Chain of katl1_human KATNAL1, Q9BW62 (Q9BW62 whole entry): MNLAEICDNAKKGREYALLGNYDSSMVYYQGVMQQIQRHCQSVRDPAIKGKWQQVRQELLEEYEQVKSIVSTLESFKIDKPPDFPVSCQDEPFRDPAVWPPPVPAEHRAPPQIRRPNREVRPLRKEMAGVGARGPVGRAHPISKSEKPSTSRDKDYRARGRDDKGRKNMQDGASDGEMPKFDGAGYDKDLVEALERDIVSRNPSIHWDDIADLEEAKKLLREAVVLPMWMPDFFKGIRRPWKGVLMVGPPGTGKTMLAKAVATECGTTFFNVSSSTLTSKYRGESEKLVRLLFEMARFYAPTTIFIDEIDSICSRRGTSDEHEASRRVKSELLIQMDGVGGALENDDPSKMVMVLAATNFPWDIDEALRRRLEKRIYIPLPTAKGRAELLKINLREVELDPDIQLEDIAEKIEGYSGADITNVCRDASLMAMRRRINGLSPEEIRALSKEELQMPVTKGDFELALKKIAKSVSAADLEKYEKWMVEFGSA
V94D: the “effect of a mutation on the interaction” value is on record as “disrupting interaction strength”.

The next assay covers variants of B6. To be noted: with pax6_human PAX6, P26367.
Chain of pax6_human PAX6, P26367 (P26367 whole entry): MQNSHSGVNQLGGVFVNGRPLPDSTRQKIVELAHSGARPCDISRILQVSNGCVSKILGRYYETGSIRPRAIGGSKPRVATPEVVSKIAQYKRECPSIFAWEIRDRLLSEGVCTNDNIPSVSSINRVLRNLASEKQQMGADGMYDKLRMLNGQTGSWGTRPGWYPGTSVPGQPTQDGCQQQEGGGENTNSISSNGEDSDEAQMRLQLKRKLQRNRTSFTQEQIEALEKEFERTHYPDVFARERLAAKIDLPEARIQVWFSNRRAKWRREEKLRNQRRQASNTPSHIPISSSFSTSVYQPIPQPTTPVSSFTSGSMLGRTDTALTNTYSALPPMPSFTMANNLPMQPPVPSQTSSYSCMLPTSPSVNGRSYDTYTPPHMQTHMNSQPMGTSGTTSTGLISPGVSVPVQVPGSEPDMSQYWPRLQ
On to V94D, for which the “effect of a mutation on the interaction” value was “with no effect”.

In another assay the parent is B6. The note with it: with taso2_human TASOR2, Q5VWN6.
Turning to V94D, the “effect of a mutation on the interaction” value is “with no effect”.

The variants in another assay derive from B6. To be noted: with pnma5_human PNMA5, Q96PV4.
Chain of pnma5_human PNMA5, Q96PV4 (Q96PV4 whole entry): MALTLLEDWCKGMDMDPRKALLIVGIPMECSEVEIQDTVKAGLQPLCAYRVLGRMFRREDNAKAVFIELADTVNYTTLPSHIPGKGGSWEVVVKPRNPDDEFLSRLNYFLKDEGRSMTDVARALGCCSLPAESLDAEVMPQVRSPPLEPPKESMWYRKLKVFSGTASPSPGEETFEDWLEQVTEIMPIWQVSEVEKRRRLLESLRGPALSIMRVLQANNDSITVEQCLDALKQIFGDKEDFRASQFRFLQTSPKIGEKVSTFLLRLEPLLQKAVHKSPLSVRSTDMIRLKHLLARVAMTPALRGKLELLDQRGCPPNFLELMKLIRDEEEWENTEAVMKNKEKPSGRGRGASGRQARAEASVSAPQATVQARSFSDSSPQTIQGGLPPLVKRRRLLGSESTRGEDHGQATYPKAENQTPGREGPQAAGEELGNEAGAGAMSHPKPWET
V94D: the “effect of a mutation on the interaction” value was “with no effect”.

The next assay covers variants of B6. To be noted: with ms18b_human OIP5, O43482.
Chain of ms18b_human OIP5, O43482 (O43482 whole entry): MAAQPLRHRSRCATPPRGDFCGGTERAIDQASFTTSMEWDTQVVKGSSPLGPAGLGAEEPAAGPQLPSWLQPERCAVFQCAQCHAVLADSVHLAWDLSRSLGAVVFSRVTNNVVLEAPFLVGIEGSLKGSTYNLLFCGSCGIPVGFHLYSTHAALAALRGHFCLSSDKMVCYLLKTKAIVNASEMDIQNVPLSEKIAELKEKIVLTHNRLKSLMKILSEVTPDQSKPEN
On to V94D, for which the “effect of a mutation on the interaction” value is on record as “disrupting interaction strength”.

In another assay the parent is B6. To be noted: with cq050_human C17orf50, Q8WW18.
Chain of cq050_human C17orf50, Q8WW18 (Q8WW18 whole entry): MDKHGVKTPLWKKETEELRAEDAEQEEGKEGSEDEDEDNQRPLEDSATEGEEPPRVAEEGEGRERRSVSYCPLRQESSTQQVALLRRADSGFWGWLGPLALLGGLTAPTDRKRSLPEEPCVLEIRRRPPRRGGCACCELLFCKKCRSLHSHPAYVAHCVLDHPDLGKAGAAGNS
For V94D, the “effect of a mutation on the interaction” value is given as “disrupting interaction strength”.

A further assay covers variants of B6. The note with it: with mb3l1_human MBD3L1, Q8WWY6.
Chain of mb3l1_human MBD3L1, Q8WWY6 (Q8WWY6 whole entry): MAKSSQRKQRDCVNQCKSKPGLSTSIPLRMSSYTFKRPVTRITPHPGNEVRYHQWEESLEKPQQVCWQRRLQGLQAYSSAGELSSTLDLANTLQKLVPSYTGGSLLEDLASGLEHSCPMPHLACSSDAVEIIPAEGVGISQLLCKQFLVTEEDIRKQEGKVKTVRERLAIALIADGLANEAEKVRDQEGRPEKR
For V94D, the “effect of a mutation on the interaction” value was “with no effect”.

The variants in a further assay derive from B6. To be noted: with PRR5, P85299-2.
Chain of PRR5, P85299-2 (P85299 other isoform, or with tags, fused parts or gaps): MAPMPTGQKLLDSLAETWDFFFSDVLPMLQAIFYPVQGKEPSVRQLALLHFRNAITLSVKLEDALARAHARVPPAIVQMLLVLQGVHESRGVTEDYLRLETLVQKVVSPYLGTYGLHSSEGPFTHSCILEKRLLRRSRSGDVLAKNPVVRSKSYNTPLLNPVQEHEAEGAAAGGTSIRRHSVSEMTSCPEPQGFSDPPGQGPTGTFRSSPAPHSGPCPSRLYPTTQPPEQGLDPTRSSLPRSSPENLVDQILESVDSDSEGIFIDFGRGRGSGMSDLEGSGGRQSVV
With V94D, the “effect of a mutation on the interaction” value is “disrupting interaction strength”.

A further assay covers variants of B6. The note with it: with cenps_human CENPS.
With V94D, the “effect of a mutation on the interaction” value was “disrupting interaction strength”.

The variants in another assay derive from B6. The note with it: with zn552_human ZNF552, Q9H707.
Chain of zn552_human ZNF552, Q9H707 (Q9H707 whole entry): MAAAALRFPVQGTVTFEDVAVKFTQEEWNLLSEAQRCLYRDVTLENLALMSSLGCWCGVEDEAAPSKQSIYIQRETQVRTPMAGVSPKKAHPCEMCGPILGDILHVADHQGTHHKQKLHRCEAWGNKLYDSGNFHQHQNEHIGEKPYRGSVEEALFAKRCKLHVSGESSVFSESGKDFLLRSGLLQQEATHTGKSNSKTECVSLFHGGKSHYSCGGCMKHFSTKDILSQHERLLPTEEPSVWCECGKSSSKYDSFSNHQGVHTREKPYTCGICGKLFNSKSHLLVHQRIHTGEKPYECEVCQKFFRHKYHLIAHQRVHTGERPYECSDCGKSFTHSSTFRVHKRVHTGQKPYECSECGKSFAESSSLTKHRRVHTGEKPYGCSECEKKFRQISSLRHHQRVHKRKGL
Turning to V94D, the “effect of a mutation on the interaction” value is listed as “disrupting interaction strength”.

In a further assay the parent is B7. The note with it: with go45_human BLZF1, Q9H2G9.
In the case of V94D, the “effect of a mutation on the interaction” value is “disrupting interaction strength”.

Variants of B8 are the subject of the next assay. The note with it: with stx4_human STX4, Q12846.
Chain of stx4_human STX4, Q12846 (Q12846 whole entry): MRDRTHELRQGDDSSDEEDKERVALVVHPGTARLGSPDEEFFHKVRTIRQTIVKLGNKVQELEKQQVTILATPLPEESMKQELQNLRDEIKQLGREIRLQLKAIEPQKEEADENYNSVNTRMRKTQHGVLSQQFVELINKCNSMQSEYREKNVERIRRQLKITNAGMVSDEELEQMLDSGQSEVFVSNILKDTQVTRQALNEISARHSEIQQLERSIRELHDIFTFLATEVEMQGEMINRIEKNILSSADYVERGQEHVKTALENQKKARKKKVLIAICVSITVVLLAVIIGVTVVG
For the variant G144W, the “effect of a mutation on the interaction” value is “with no effect”.

The variants in the next assay derive from B8. To be noted: with stx1a_human STX1A.
G144W: the “effect of a mutation on the interaction” value is given as “with no effect”.

Another assay covers variants of B8. To be noted: with retr3_human RETREG3, Q86VR2.
Chain of retr3_human RETREG3, Q86VR2 (Q86VR2 whole entry): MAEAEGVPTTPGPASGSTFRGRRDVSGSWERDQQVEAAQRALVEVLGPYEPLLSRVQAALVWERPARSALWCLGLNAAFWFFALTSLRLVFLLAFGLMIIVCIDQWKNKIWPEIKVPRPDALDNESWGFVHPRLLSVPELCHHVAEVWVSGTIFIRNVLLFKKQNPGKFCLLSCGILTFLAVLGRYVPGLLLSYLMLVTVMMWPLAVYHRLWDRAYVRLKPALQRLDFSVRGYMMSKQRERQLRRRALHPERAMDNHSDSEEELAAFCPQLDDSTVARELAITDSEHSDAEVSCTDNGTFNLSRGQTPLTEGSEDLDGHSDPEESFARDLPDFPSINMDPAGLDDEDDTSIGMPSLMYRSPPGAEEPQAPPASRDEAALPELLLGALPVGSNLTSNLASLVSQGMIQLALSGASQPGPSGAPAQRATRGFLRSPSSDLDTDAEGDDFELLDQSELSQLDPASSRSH
In the case of G144W, the “effect of a mutation on the interaction” value is “with no effect”.

Variants of B8 are the subject of a further assay. The note with it: with tm205_human TMEM205, Q6UW68.
Chain of tm205_human TMEM205, Q6UW68 (Q6UW68 whole entry): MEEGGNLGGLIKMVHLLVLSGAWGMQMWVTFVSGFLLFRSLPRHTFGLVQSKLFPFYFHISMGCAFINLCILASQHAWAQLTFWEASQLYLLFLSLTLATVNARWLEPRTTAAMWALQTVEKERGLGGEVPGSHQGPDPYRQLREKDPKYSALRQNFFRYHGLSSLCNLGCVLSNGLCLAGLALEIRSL
As for G144W, the “effect of a mutation on the interaction” value is listed as “with no effect”.

The variants in a further assay derive from B8. To be noted: with ebp_human EBP.
Turning to G144W, the “effect of a mutation on the interaction” value was “with no effect”.

In the next assay the parent is B8. To be noted: with gp152_human GPR152, Q8TDT2.
Chain of gp152_human GPR152, Q8TDT2 (Q8TDT2 whole entry): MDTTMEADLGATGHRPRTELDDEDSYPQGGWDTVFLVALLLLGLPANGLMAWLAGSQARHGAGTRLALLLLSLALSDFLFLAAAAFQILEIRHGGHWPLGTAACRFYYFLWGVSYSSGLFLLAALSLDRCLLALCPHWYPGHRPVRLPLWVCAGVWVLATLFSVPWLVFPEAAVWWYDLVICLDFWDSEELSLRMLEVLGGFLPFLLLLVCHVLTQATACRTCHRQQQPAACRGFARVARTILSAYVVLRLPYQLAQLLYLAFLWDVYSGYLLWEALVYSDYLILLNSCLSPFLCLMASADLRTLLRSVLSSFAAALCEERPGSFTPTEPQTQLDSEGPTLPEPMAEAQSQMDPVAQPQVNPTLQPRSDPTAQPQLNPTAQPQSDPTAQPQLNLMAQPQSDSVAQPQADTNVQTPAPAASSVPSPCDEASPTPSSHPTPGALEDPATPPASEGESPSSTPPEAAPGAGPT
Turning to G144W, the “effect of a mutation on the interaction” value is listed as “with no effect”.

In another assay the parent is B8. To be noted: with ar13b_human ARL13B.
Regarding G144W, the “effect of a mutation on the interaction” value was “disrupting interaction strength”.
